# Measured values reported in patent US20210388087A1 (Chugai, published 2021).
# Biological target: T1, Human CD137 ECD (human)
# T1 construct: also called 4-1BB
# Assay: single mutant vs template dBBDu183H
# T1 sequence (chain, as listed by the source limits assumed): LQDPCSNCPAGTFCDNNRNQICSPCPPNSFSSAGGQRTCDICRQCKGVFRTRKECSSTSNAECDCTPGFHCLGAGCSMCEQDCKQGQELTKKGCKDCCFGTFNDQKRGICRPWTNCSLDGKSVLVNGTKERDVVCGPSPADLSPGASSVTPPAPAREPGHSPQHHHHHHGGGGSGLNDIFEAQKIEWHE
row,Binder,fold change of affinity [fold]
1,"H183/L072 VH G100hA (antibody, name in Kabat numbering, V domains shown) VH: QVQLVESGGGLVQPGRSLRLSCAASGFTFSNAWMHWVRQAPGKGLEWVAQIKDKGNAYAAYYAPSVKGRFTISRDDSKNSIYLQMNSLKTEDTAVYYCHYVHYASASTVLPAFAVDAWGQGTTVTVSS VL: DIVMTQSPLSLPVTPGEPASISCQASQELVHMNRNTYLHWYQQKPGQAPRLLIYKVSNRFPGVPDRFSGSGSGTDFTLKISRVEAEDVGVYYCAQGTSVPFTFGQGTKLEIK",0
2,"H183/L072 VH H35N (antibody, name in Kabat numbering, V domains shown) VH: QVQLVESGGGLVQPGRSLRLSCAASGFTFSNAWMNWVRQAPGKGLEWVAQIKDKGNAYAAYYAPSVKGRFTISRDDSKNSIYLQMNSLKTEDTAVYYCHYVHYASASTVLPAFGVDAWGQGTTVTVSS VL: DIVMTQSPLSLPVTPGEPASISCQASQELVHMNRNTYLHWYQQKPGQAPRLLIYKVSNRFPGVPDRFSGSGSGTDFTLKISRVEAEDVGVYYCAQGTSVPFTFGQGTKLEIK",0.4
3,"H183/L072 VH H35F (antibody, name in Kabat numbering, V domains shown) VH: QVQLVESGGGLVQPGRSLRLSCAASGFTFSNAWMFWVRQAPGKGLEWVAQIKDKGNAYAAYYAPSVKGRFTISRDDSKNSIYLQMNSLKTEDTAVYYCHYVHYASASTVLPAFGVDAWGQGTTVTVSS VL: DIVMTQSPLSLPVTPGEPASISCQASQELVHMNRNTYLHWYQQKPGQAPRLLIYKVSNRFPGVPDRFSGSGSGTDFTLKISRVEAEDVGVYYCAQGTSVPFTFGQGTKLEIK",4.3
4,"H183/L072 VH G100hL (antibody, name in Kabat numbering, V domains shown) VH: QVQLVESGGGLVQPGRSLRLSCAASGFTFSNAWMHWVRQAPGKGLEWVAQIKDKGNAYAAYYAPSVKGRFTISRDDSKNSIYLQMNSLKTEDTAVYYCHYVHYASASTVLPAFLVDAWGQGTTVTVSS VL: DIVMTQSPLSLPVTPGEPASISCQASQELVHMNRNTYLHWYQQKPGQAPRLLIYKVSNRFPGVPDRFSGSGSGTDFTLKISRVEAEDVGVYYCAQGTSVPFTFGQGTKLEIK",0
5,"H183/L072 VH G100hM (antibody, name in Kabat numbering, V domains shown) VH: QVQLVESGGGLVQPGRSLRLSCAASGFTFSNAWMHWVRQAPGKGLEWVAQIKDKGNAYAAYYAPSVKGRFTISRDDSKNSIYLQMNSLKTEDTAVYYCHYVHYASASTVLPAFMVDAWGQGTTVTVSS VL: DIVMTQSPLSLPVTPGEPASISCQASQELVHMNRNTYLHWYQQKPGQAPRLLIYKVSNRFPGVPDRFSGSGSGTDFTLKISRVEAEDVGVYYCAQGTSVPFTFGQGTKLEIK",0
6,"H183/L072 VH H35T (antibody, name in Kabat numbering, V domains shown) VH: QVQLVESGGGLVQPGRSLRLSCAASGFTFSNAWMTWVRQAPGKGLEWVAQIKDKGNAYAAYYAPSVKGRFTISRDDSKNSIYLQMNSLKTEDTAVYYCHYVHYASASTVLPAFGVDAWGQGTTVTVSS VL: DIVMTQSPLSLPVTPGEPASISCQASQELVHMNRNTYLHWYQQKPGQAPRLLIYKVSNRFPGVPDRFSGSGSGTDFTLKISRVEAEDVGVYYCAQGTSVPFTFGQGTKLEIK",0.5

# Continued, values first:
row,fold change of affinity [fold],Binder
1,0.5,"H183/L072 VH H35V (antibody, name in Kabat numbering, V domains shown) VH: QVQLVESGGGLVQPGRSLRLSCAASGFTFSNAWMVWVRQAPGKGLEWVAQIKDKGNAYAAYYAPSVKGRFTISRDDSKNSIYLQMNSLKTEDTAVYYCHYVHYASASTVLPAFGVDAWGQGTTVTVSS VL: DIVMTQSPLSLPVTPGEPASISCQASQELVHMNRNTYLHWYQQKPGQAPRLLIYKVSNRFPGVPDRFSGSGSGTDFTLKISRVEAEDVGVYYCAQGTSVPFTFGQGTKLEIK"
2,0,"H183/L072 VH G100hI (antibody, name in Kabat numbering, V domains shown) VH: QVQLVESGGGLVQPGRSLRLSCAASGFTFSNAWMHWVRQAPGKGLEWVAQIKDKGNAYAAYYAPSVKGRFTISRDDSKNSIYLQMNSLKTEDTAVYYCHYVHYASASTVLPAFIVDAWGQGTTVTVSS VL: DIVMTQSPLSLPVTPGEPASISCQASQELVHMNRNTYLHWYQQKPGQAPRLLIYKVSNRFPGVPDRFSGSGSGTDFTLKISRVEAEDVGVYYCAQGTSVPFTFGQGTKLEIK"
